B1: sV(HIgR)-Fc (Fc fusion)
chain: QVVQVNDSMYGFIGTDVVLHCSFANPLPSVKITQVTWQKSTNGSKQNVAIYNPSMGVSVLAPYRERVEFLRPSFTDGTIRLSRLELEDEGVYICGFATFPTGNRESQLNLTVMA
notes: Made in COS1 cells and purified on protein A; also called V1-Fc; soluble V domain of HIgR/PRR1; not shown: IgG Fc (Fc portion of human IgG1) from the Cos Fc Link (CFL) vector
B2: HSV-1 glycoprotein D purified from HSV-1-infected BHK cells (ligand)
chain: KYALVDASLKMADPNRFRGKDLPVLDQLTDPPGVRRVYHIQAGLPDPFQPPSLPITVYYAVLERACRSVLLNAPSEAPQIVRGASEDVRKQPYNLTIAWFRMGGNCAIPITVMEYTECSYNKSLGACPIRTQPRWNYYDSFSAVSEDNLGFLMHAPAFETAGTYLRLVKINDWTEITQFILEHRAKGSCKYALPLRIPPSACLSPQAYQQGVTVDSIGMLPRFIPENQRTVAVYSLKIAGWHGPKAPYTSTLLPPELSETPNATQPELAPEDPEDSALLEDPVGTVAPQIPPNWHIPSIQDAATPYHPPATPNNMGLIAGAVGGSLLAALVICGIVYWMRRHTQKAPKRIRLPHIREDDQPSSHQPLFY
notes: also called gD; HSV gD

Assays:
[1] = molecular target: B2; assay: ELISA, gD immobilized, detection with anti-human IgG-peroxidase
BSA = molecular target: T1, BSA (UniProt P02769 25-607); assay: ELISA on immobilized gD
T1 construct: Unrelated control molecule
T1 sequence (P02769 25-607 limits assumed): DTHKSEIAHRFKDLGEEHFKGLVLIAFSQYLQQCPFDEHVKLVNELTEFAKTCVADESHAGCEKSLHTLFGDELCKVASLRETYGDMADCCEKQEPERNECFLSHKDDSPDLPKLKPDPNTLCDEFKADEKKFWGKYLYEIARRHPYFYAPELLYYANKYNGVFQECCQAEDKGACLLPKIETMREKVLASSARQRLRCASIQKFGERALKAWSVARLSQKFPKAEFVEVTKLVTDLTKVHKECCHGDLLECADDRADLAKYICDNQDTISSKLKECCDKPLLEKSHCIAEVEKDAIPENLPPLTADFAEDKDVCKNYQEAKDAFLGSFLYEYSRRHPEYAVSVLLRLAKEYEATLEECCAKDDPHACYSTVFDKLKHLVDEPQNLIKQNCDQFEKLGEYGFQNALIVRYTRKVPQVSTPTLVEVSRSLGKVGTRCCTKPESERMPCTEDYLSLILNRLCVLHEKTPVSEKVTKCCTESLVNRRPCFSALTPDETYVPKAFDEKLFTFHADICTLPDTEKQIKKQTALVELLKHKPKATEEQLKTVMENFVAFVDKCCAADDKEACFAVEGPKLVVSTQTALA

Binder | reduction in the level of saturable binding relative to sVCC(HIgR)-Fc [1] | binding result (BSA)
B1 | ~30% | 
B2 |  | no binding

Source: patent publication US6469155 (UNIVERSITA DEGLI STUDI DI BOLOGNA, dated 2002)
